From patent publication US20230250154A1 (CYTONICS, published 2023)

Legend:
Assay in all cases: cell-based or functional assay
MMP8 = MMP8 (human, UniProt P22894 101-467, limits assumed)
ADAMTS4 = molecular target: T1, ADAMTS4 (human, UniProt O75173 213-685, limits assumed)
T1 sequence (looked up): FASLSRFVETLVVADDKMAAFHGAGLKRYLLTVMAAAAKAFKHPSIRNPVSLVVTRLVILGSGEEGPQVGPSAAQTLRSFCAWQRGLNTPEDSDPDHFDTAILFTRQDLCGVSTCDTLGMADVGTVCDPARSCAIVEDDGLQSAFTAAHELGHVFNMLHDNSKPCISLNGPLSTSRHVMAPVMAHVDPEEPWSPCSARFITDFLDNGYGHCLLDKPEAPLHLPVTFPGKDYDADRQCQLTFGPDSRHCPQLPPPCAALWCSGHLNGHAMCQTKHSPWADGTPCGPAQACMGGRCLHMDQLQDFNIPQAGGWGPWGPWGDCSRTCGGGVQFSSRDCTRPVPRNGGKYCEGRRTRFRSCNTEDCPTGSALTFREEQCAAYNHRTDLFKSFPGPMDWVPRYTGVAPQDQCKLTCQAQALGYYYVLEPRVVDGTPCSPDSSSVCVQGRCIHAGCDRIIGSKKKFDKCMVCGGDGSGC

MMP13 = MMP13 (human, UniProt P45452 104-471, limits assumed)
MMP2 = molecular target: T2, MMP2 (human, UniProt P08253 110-660, limits assumed)
T2 sequence (looked up): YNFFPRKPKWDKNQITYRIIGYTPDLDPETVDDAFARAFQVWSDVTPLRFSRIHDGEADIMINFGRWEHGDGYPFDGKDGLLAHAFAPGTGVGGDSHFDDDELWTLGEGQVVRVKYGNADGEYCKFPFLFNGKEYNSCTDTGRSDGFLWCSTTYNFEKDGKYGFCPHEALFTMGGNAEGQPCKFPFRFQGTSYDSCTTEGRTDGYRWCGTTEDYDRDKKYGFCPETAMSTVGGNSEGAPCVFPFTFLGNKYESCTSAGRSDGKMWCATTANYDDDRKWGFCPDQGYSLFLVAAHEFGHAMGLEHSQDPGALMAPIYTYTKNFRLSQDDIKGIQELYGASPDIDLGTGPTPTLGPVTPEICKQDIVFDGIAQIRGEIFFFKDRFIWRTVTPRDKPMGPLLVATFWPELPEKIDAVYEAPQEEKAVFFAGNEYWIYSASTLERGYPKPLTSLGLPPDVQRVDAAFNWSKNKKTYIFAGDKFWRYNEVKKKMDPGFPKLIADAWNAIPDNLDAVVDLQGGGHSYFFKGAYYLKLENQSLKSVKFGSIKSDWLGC

ADAMTS5 = molecular target: T3, ADAMTS5 (human, UniProt Q9UNA0 262-622, limits assumed)
T3 sequence (looked up): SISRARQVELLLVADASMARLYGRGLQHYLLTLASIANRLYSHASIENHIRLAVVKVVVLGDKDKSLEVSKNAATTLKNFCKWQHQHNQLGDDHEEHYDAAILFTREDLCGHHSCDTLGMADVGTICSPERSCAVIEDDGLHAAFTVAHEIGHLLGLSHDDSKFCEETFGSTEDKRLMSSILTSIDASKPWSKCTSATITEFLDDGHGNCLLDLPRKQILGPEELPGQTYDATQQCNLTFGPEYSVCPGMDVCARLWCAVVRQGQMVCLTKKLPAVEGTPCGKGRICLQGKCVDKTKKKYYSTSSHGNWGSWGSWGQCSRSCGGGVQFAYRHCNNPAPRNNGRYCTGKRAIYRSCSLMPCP

MMP3 = MMP3 (human, UniProt P08254 100-477, limits assumed)
MMP12 = MMP12 (human, UniProt P39900 106-470, limits assumed)
MMP9 = MMP9 (human, UniProt P14780 107-707, limits assumed)
MMP1 = molecular target: T4, MMP1 (human, UniProt P03956 100-469, limits assumed)
T4 sequence (looked up): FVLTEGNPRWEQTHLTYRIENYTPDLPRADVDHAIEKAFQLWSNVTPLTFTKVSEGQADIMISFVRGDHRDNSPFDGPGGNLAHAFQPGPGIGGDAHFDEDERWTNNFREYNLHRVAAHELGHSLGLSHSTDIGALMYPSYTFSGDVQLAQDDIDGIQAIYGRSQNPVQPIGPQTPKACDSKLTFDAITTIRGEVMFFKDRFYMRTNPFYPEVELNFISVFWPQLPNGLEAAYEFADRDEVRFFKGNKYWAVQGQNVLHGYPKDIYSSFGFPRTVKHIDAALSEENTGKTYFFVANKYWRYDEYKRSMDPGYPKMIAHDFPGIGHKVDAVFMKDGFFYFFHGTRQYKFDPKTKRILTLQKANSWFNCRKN

bovine trypsin = bovine trypsin (bovine, UniProt P00760 24-246)
Cathepsin G = molecular target: T5, Cathepsin G (UniProt P08311 21-244)
T5 sequence (looked up): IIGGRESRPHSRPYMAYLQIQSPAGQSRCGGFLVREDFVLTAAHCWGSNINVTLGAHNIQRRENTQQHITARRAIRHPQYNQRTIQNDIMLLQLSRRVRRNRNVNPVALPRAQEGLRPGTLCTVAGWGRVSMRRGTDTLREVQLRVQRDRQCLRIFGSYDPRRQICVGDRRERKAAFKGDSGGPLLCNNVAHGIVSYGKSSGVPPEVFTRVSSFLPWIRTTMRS

Elastase = molecular target: Elastase
chymotrypsin = molecular target: chymotrypsin

Sequence of MMP12 (P39900 106-470 limits assumed): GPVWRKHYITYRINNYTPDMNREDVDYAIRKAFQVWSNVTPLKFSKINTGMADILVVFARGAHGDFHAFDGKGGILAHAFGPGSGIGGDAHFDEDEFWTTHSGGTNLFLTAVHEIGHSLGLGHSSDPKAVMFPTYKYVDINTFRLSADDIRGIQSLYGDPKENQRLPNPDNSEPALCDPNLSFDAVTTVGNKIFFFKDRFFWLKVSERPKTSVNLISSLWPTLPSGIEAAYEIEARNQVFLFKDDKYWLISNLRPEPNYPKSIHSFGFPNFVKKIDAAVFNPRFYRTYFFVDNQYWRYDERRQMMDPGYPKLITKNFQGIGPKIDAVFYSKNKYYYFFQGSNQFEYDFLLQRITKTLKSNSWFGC
Sequence of MMP3 (P08254 100-477 limits assumed): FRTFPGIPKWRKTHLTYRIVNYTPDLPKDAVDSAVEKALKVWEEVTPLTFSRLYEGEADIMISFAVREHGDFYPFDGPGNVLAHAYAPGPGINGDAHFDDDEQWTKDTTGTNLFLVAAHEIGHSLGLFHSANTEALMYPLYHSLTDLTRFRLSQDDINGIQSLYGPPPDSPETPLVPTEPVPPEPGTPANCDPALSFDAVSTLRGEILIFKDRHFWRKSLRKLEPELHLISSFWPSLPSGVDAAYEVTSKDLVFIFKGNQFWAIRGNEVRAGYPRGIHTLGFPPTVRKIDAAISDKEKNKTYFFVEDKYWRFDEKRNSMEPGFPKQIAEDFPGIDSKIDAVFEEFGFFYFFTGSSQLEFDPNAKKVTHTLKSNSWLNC
Sequence of MMP8 (P22894 101-467 limits assumed): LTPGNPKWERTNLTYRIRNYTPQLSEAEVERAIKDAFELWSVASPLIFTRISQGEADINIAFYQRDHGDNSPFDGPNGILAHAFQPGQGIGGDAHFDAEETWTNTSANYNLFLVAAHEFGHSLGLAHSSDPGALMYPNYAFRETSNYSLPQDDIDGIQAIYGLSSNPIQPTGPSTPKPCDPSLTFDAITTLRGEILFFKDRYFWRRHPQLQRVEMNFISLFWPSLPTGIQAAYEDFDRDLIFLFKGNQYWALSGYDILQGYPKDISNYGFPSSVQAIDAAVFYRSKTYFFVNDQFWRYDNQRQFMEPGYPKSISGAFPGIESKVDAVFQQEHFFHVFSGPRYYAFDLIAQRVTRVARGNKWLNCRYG
Sequence of MMP9 (P14780 107-707 limits assumed): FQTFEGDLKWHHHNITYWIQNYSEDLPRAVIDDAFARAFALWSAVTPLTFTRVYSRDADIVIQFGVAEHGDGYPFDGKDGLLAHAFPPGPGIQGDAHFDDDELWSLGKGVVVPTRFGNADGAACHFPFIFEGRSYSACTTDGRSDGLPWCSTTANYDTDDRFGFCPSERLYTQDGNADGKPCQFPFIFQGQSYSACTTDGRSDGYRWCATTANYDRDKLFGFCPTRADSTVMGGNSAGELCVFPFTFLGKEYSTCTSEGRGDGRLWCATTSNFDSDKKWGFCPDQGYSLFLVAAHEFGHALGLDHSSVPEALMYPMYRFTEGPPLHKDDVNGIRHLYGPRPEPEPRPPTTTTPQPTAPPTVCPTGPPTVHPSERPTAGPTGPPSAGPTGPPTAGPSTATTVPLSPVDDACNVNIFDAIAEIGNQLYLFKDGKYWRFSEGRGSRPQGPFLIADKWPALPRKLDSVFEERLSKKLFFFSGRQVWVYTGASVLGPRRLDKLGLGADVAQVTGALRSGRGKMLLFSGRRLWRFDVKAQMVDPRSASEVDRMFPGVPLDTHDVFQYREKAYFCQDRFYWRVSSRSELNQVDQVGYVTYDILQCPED
Sequence of bovine trypsin (P00760 24-246): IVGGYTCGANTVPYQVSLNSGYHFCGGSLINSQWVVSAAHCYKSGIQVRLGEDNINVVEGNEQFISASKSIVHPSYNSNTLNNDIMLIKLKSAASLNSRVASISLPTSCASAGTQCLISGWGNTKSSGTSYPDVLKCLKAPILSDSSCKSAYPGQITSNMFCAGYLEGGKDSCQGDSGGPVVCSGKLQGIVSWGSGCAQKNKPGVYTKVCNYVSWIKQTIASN

Protease Inhibition (% of WT) (MMP8): 161 % of WT | Protease Inhibition (% of WT) (ADAMTS4): 86 % of WT | Protease Inhibition (% of WT) (MMP13): 117 % of WT | Protease Inhibition (% of WT) (MMP2): 67 % of WT | Protease Inhibition (% of WT) (ADAMTS5): 185 % of WT | Protease Inhibition (% of WT) (MMP3): 100 % of WT | Protease Inhibition (% of WT) (MMP12): 136 % of WT | Protease Inhibition (% of WT) (MMP9): 500 % of WT | Protease Inhibition (% of WT) (MMP1): 388 % of WT | Protease Inhibition (% of WT) (bovine trypsin): 20 % of WT | Protease Inhibition (% of WT) (Cathepsin G): 437 % of WT | Protease Inhibition (% of WT) (Elastase): 300 % of WT | Protease Inhibition (% of WT) (chymotrypsin): 10 % of WT
B1: Variant A2M, bait region SEQ ID NO 132 (other)
chain: SVSGKPQYMVLVPSLLHTETTEKGCVLLSYLNETVTVSASLESVRGNRSLFTDLEAENDVLHCVAFAVPKSSSNEEVMFLTVQVKGPTQEFKKRTTVMVKNEDSLVFVQTDKSIYKPGQTVKFRVVSMDENFHPLNELIPLVYIQDPKGNRIAQWQSFQLEGGLKQFSFPLSSEPFQGSYKVVVQKKSGGRTEHPFTVEEFVLPKFEVQVTVPKIITILEEEMNVSVCGLYTYGKPVPGHVTVSICRKYSDASDCHGEDSQAFCEKFSGQLNSHGCFYQQVKTKVFQLKRKEYEMKLHTEAQIQEEGTVVELTGRQSSEITRTITKLSFVKVDSHFRQGIPFFGQVRLVDGKGVPIPNKVIFIRGNEANYYSNATTDEHGLVQFSINTTNVMGTSLTVRVNYKDRSPCYGYQWVSEEHEEAHHTAYLVFSPSKSFVHLEPMSHELPCGHTQTVQAHYILNGGTLLGLKKLSFYYLIMAKGGIVRTGTHGLLVKQEDMKGHFSISIPVKSDIAPVARLLIYAVLPTGDVIGDSAKYDVENCLANKVDLSFSPSQSLPASHAHLRVTAAPQSVCALRAVDQSVLLMKPDAELSASSVYNLLPEKDLTGFPGPLNDQDDEDCINRHNVYINGITYTPVSSTNEKDMYSFLEDMGLKAFTNSKIRKPKMCPQLEQYEMHGPEGEGEGEGIPENFFGVSELEGRGSSEDLVVQIVEEPHTKLRKYFPETWIWDLVVVNSAGVAEVGVTVPDTITEWKAGAFCLSEDAGLGISSTASLRAFQPFFVELTMPYSVIRGEAFTLKATVLNYLPKCIRVSVQLEASPAFLAVPVEKEQAPHCICANGRQTVSWAVTPKSLGNVNFTVSAEALESQELCGTEVPSVPEHGRKDTVIKPLLVEPEGLEKETTFNSLLCPSGGEVSEELSLKLPPNVVEESARASVSVLGDILGSAMQNTQNLLQMPYGCGEQNMVLFAPNIYVLDYLNETQQLTPEIKSKAIGYLNTGYQRQLNYKHYDGSYSTFGERYGRNQGNTWLTAFVLKTFAQARAYIFIDEAHITQALIWLSQRQKDNGCFRSSGSLLNNAIKGGVEDEVTLSAYITIALLEIPLTVTHPVVRNALFCLESAWKTAQEGDHGSHVYTKALLAYAFALAGNQDKRKEVLKSLNEEAVKKDNSVHWERPQKPKAPVGHFYEPQAPSAEVEMTSYVLLAYLTAQPAPTSEDLTSATNIVKWITKQQNAQGGFSSTQDTVVALHALSKYGAATFTRTGKAAQVTIQSSGTFSSKFQVDNNNRLLLQQVSLPELPGEYSMKVTGEGCVYLQTSLKYNILPEKEEFPFALGVQTLPQTCDEPKAHTSFQISLSVSYTGSRSASNMAIVDVKMVSGFIPLKPTVKMLERSNHVSRTEVSSNHVLIYLDKVSNQTLSLFFTVLQDVPVRDLKPAIVKVYDYYETDEFAIAEYNAPCSKDLGNADYKDDDDKGASHHHHHH
